Assay: soluble on expression in E. coli; label from the status in PepcDB or PDB records

Row | Sequence | soluble on expression in E. coli
1 | MAHHHHHHMGVPTMERSHGRRSPDEVRYPHIVLNVLGQSYSSACIEVGSTRVVCAVHHPQQLIDEYRGSRGRVACTVRRSSRAQKHELAFRADVTPEKDLALALEGVVEQAVVLEKIPQLLVEVAVEILAEDGGLWDAIATGVCAALASGGFEMYDTFSACGAALLPDGSIVTDPSATEWNTAKATAVTCAMLNSGNMCFTAQRGSCEPTTALDLVMAALKGTLARKNVISSQLCEQFAF | not soluble
2 | MGSDKIHHHHHHMSGIEAFSPKGMLHECWSAQANDYAIVCGWALQGKTFLVGDVAGGLYAFEGISGKLIWQIKDIHKGGLLAMSIHPNGKTFATAGQDGHVNIWESQKGTSTKTLELGKGWVEHIKWSPDGKFLAVVFTKYVYVFDDKGQEHWRSEEHPSTVSAIAWSNSNELATACYGQVTFFDVVNDKINQKLEWRGSLVSMVLSPDGDIVACGSQDNSVHFWRRSTDQDSEMTGYPGKPSHLAFDQTGTVLATGGSDRVTVWSFQGDGPEGTVPGELMLHTEPISCLAFSHSGMLLASGSRDGSVFSWFLQKDGQGDPVGGAFAGDLVSQIAWHPDDTALAAINANGGITVWEFKVRTKTSPQGFG | not soluble
3 | MTFQETISAYIQERYQITPDFPFKKHPDYLVFRHPRNAKWFALIMPLDAQLLGATENKQLTILTVKLAPELIALLKNQPGYFPAYHMNKEHWLSLSEEIPLSQVFSFIDESYQRSYLEHHHHHH | soluble
4 | MFGLPMYNVWRAEQAGKAEFSKAEQNRRIKIEEAKANLEAEKLNAKAEIERAKGAAEAIRIENNSLTPTYIQYLWVRQQGSLNDKTVIYIPTEANLPLLEAGRTAGGLKRAECPTE | not soluble
5 | MGSDKIHHHHHHMIFSCPIDRSDVNEKLECEKGHKFGIIGGQIYDFLLKDVEVDKLLSRVIPIYESIWAPLGLLITSGKTYTSFLREIGEFIDGDLIIDVGTGTGKIFDFLNCKTCIGIDVSLRFLMYMKRKRTRVIAVRADANNLPLKSGIADGISSTLVLHMLSNPSFAIREMSRVLKSNGKCSIAVLANVNSIIGKTLSRWWKVNLRHYDYYINLLQENSLKVVERKELGPWEVINCIKIS | not soluble
6 | MSDVSTSVQSKFARLAKKKENITYMKREQLTETDKDIAPVLDLKCKDVSAIMNKFKVLMEIQDLMFEEMRETLKNDLKAVLGGKATIPEVKNSENSSSRTEFQQIINLALQKTGMVGKIEGENSKIGDDNENLTFKLEVNELSGKLDNTNEYNSNDGKKLPQGESRSYEVMGSMEETLCNIDDRDGNRNVHLEFTERESRKDGEDEFVKEMREERKFQKLKNKEEVLKASREEKVLMDEGAVLTLAADLSSATLDISKQWSNVFNILRENDFEPKFLCEVKLAFKCDGEIKTFSDLQSLRKFASQKSSMKELLKDVLPQKEEINQGGRNYGIQEKRDKTLIDSKHRAGEITSDGLSFLFLKEVKVAKPEEMKNLETQEEEFSELEELDEEASGMEDDEDTSGLEEEEEEPSGLEEEEEEEASGLEEDEASGLEEEEEQTSEQDSTFQGHTLVDAKHEVEITSDGMETTFIDSVEDSESEEEEEGKSSETGKVKTTSLTEKKASRRQKEIPFSYLVGDSGKKKLVKHQVVHKTQEEEETAVPTSQGTGTPCLTLCLASPSKSLEMSHDEHKKHSHTNLSISTGVTKLKKTEEKKHRTLHTEELTSKEADLTEETEENLRSSVINSIREIKEEIGNLKSSHSGVLEIENSVDDLSSRMDILEERIDSLEDQIEEFSKDTMQMTKQIISKERQRDIEERSRSCNIRLIGIPEKESYENRAEDIIKEIIDENFAELKKGSSLEIVSACRVPSKIDEKRLTPRHILVKFWNSSDKEKIIRASRERREITYQGTRIRLTADLSLDTLDARSKWSNVFKVLLEKGFNPRILYPAKMAFDFRGKTKVFLSIEEFRDYVLHMPTLRELLGNNIP | soluble
7 | MSLDVPAMPERVETQGVEFVEFSTAPEEKANLEVLLATLGFEKSAQHRNRAVDLYTQGDIRIVINTSDDGDSFAGASYSIHGTNAYAFGLKVDDAQAALARAEALGAPTFAEPRNTGEVAVPAIQGVGNGVIYFLDASPALASIWDKEFVPTQGQKAMSDAGLTRVDHLAQTTHYDEMLTWLLFYTSLFSSRRTPMIDVVDPGGLVRSQAIESVPAANFRLTMNGADNRKTFAGKFLAEGFGSSIQHIAFATDDIFATAKAMQARGFHALPISRNYYDDLEARFGLEPEFSDALREASILYDRDDSGEYFQIYSRTFGEGFFFEVIERRGAYGGYGAMNAPFRIAAQRRLAEGHHHHHH | soluble
8 | MHKLLYTCNLRCRMCPFWRRKDEKLLSLEEEVLMLKSLEKAGVLFMGFEGGEPLLRRDLEDILEESYKRFYTSLVTNGWLLKDRAKSISNYLDYLFVSIDGIGEVHDKIRGISGAFERAVEGIKEARKYLPVAISFTITKENMDQVKDVIELA | soluble
9 | MSLNVKIAALASHSALDVFDGAKDEGFQTIGLCKKGRERPYLEFKAIMDKCIILEDFKEIISDKVQSILLSENAIIVPNRSLAVYVGYDGIEKMKTKVFGNRYMLRWEERIGEKNYYKILNEAKISIPKLFKPEEIDRPVIVKLPEAKRKVERGFFFAVNKEDFEAKLNELLRNNVIDNEGLKNMVIEEFVFGAHFNLNYFYSPIFNRLELISVDRRIQSDWDSLYRLPADIQIKLGRIPKLIEVGHEPVTIRESLLEKVFEIGYRFVDATQKLEPPGIIGPFTLQVMVTPDLDLVVYDVAPRIGGGTNVYMGTGSQYSKFYFGKPISLGRRIALEIKHAIINNLTEKILTEGHHHHHH | soluble
10 | MKCSKCQAEAIYFAKYNGLYLCREHFNDMIEKRVKSEIRNQVDLKKPMVRISVAISGGKDSSVTLYLLHKILSKRRNVELTAFTVDEGISGYRPAGLESAIKLTKMLGVDHSIIRFQDSFGMTLDSIVGADASRIPCSYCGPLRRKLINEMAERQNADYVALGLNLDDYSQSILMNVAKGDYDRLLRMSPQKEAKDGLVRRIAPLRSVLEKEVVLYAVINGIPFDSSWCPYYSRAQRNIFREVVNTLSEYNPSTKFSILKFFERARSDVQRNDKALGRCRICGAPTENDVCSACAAMESLRNERKASESELHAR | not soluble
11 | MQPASAKWYDRRDYVFIEFCVEDSKDVNVNFEKSKLTFSCLGGSDNFKHLNEIDLFHCIDPNDSKHKRTDRSILCCLRKGESGQSWPRLTKERAKLNWLSVDFNNWKDWEDDSDEDMSNFDRFSEMMNNMGGDEDVDLPEVDGADDDSQDSDDEKMPDLE | not soluble
12 | MGHHHHHHSHMGITTNLISEVSKFYYALKYHAKFMSLGELGCYASHYSLWEKCIELNEAICILEDDITLKEDFKEGLDFLEKHIQELGYIRLMHLLYDASVKSEPLSHKNHEIQERVGIIKAYSEGVGTQGYVITPKIAKVFLKCSRKWVVPVDTIMDATFIHGVKNLVLQPFVIADDEQISTIARKEEPYSPKIALMRELHFKYLKYWQFV | not soluble
13 | MGSDKIHHHHHHMVKTARRRGDDAVRGPGGVLVLGAASWNRMIHVETLPQGASATIFDARETQGAGSTGVGKAMGLAALGYQPTLHCALGRDDHGAQVIAACAGRGISLIVDEHDAATPHHLNIMDQLGGRYSLFLSNGAPDPPINEPRIAEQIAAADTIFLSLCASSKKILHLLEGARAEILLDLHDYDGANPWYEDFIACADVIQLSDVAVADPGAVARRLLSGRAHQVVVTKAGKGAEIVTADTSIDVPPCPADMVDSNGAGDAFSVALWHAQRTGQSGLDAGGFAAAAAACAIESADLFPVNVSAADIAGRVRAHPQDHSTGTASR | not soluble
14 | MLQVCCYTSEGYKYAVGIDLVRFFDTVNHSFLLRILSRTINDGRVISLIHKYLTSGVMIGKHYEPSIEGTPQGAPLSPLLSNILLNELDKELERRGHCFVRYADDSMILCKSKRSAERVCSSITDFSFYFTKGKCRLCVHKTTKEKFKRKVKSLTRRSNSMGYAQRKEILWQTFRGWIGYFKYADMRSLLIPLDQWYRRHLRMCIWKCWKRVKTRFSNLQKCGIPKGKA | not soluble
15 | MEQRFPELNVDLSFEQEFQMRVMEEQVSAMSLQEARELLLQASRLLMMKDNVIRSLVKRAARS | soluble
16 | GMSSMQHIVELTSDLIRFPSMHSRPEQISRCAGFIMDWCAQNGIHAERMDHDGIPSVMVLPEKGRAGLLLMAHIDVVDAEDDLFVPRVENDRLYGRGANDDKYAVALGLVMFRDRLNALKAAGRSQKDMALGLLITGDEEIGGMNGAAKALPLIRADYVVALDGGNPQQVITKEKGIIDIKLTCTGKAAHGARPWMGVNAVDLLMEDYTRLKTLFAEENEDHWHRTVNLGRIRAGESTNKVPDVAEGWFNIRVTEHDDPGALIDKIRKTVSGTVSIVRTVPVFLAADSPYTERLLALSGATAGKAHGASDARYLGENGLTGVVWGAEGFNTLHSRDECLHIPSLQSIYDPLMQLAREMEEHAAV | soluble
17 | MGSDKIHHHHHHMSHANQAIPLDEEAIFDAMPMEEEGQFANHATPLIRNCWYVCARRDEVGRTPISRRLLDTDVVMYRTRDGRPVAMHNRCPHRAFPLAKGHVEGDRLVCGYHGMQFEPDGLCAHLPAISHVPANACVQTYPIADRGPLTWIWMGDANLADEALIPELPWLASSEWGSVTGDFHIKADYVSMHENLIDQTHFPFLHPGTVGTPEYARASMNATTEGDQVLIHRRLDNAPPPGIYGKPADIMHKNVDRTSEARFVSPAVHMAHARIFDPQPEPGKPSVYGYYITHCFTPESNHSIHYWWFNSRDYGIDDTDIDAFMYEASMQAYYEDVEALEWIMDVVLTDNEAQQFELSFAPDKPGLMARRIMHRLAMSERG | not soluble
18 | MPNQGSSNKVYVIGVGMTKFEKPGRREGWDYPDMARESGTKALRDAGIDYREVEQGYVGYVYGESTSGQRALYELGMTGIPIVNVNNNCSTGSTALYLGAQAIRGGLADCVLALGFEKMQPGALGGGADDRESPLGRHVKALAEIDEFGFPVAPWMFGAAGREHMKKYGTTAEHFAKIGYKNHKHSVNNPYAQFQDEYTLDDILASKMISDPLTKLQCSPTSDGSAAVVLASEDYLANHNLAGRAVEIVGQAMTTDFASTFDGSARNIIGYDMTVQAAQRVYQQSGLGPKDFGVIELHDCFSANELLLYEALGLCGPGEAPELIDDNQTTYGGRWVVNPSGGLISKGHPLGATGLAQCAELTWQLRGTAEARQVDNVTAALQHNIGLGGAAVVTAYQRAER | not soluble
19 | MGSDKIHHHHHHMKVGVALSGGVDSAVALYLLLKEGHEVKAFHMKTKEDEFFIKKEIKKKVCCSPSDTADAMRIAHFLGVEIEIVDVKEIFREKVIEPFKRDLLKGLTPNPCAHCNRFVKFGYLMDYVLNQGFDAFASGHYARIEFSEKYGRKVIKKGVDLKKDQSYFLARIEPWRIERLIFPNGIYTKEEIRKIAEEAGIHVAKKQESQDVCFIPDGSIENFLKDEGITLKDGDIITPEGEVVGRHFGYPLYTIGQRKGFKIEKFGRRYYVRGKIPEKNVVVVSDLEDVFFSGLIAEDPVWHVEVPEEFRCVCRVRKKSEEAPAVVKVKDNEVEVSFEKKVFAVTPGQIAAFYDGDTLLGGAIIKEGIR | not soluble
20 | SLRVYIYEYAVATGDEEFLAEGRAMLESLLRAFAKSGYETLTVAHPSVGVRWADEVLRDETQALECADLTLVIAPESDGLLESKVREYSRETEVIGPTPRAIRVAADKRKTEDALRDARSFQLPTREADVMVSKPADGAGSEGVRIGRGELSRELIPGSHHSLLCVSDGETVDVLGINDQFVAFAGRELVYLGGRTPSDHRELTRIARDIAEEVVERIPGLVGLFGVDLVMKGGEPYLIEVNPRPTTPTVAAALEHPEAVVRSLLEGPTGKVLRYRREYVYVKRGAEALVPEKFEVVEDFHGLRVYRG | soluble

Reference: the DeepSol protein solubility set
